Data taken from PMC3965211.

Target: Full-length human His6-Kif15 (human) (UniProt Q9NS87)
Assay: glycerol gradient ultracentrifugation; 2.5 µM hTpx2 (dimer) + 80 nM hKif15 (tetramer), 5-40% glycerol gradient in 35 mM sodium phosphate buffer

Full-length human His6-Kif15 (human), sequence (Q9NS87 whole entry): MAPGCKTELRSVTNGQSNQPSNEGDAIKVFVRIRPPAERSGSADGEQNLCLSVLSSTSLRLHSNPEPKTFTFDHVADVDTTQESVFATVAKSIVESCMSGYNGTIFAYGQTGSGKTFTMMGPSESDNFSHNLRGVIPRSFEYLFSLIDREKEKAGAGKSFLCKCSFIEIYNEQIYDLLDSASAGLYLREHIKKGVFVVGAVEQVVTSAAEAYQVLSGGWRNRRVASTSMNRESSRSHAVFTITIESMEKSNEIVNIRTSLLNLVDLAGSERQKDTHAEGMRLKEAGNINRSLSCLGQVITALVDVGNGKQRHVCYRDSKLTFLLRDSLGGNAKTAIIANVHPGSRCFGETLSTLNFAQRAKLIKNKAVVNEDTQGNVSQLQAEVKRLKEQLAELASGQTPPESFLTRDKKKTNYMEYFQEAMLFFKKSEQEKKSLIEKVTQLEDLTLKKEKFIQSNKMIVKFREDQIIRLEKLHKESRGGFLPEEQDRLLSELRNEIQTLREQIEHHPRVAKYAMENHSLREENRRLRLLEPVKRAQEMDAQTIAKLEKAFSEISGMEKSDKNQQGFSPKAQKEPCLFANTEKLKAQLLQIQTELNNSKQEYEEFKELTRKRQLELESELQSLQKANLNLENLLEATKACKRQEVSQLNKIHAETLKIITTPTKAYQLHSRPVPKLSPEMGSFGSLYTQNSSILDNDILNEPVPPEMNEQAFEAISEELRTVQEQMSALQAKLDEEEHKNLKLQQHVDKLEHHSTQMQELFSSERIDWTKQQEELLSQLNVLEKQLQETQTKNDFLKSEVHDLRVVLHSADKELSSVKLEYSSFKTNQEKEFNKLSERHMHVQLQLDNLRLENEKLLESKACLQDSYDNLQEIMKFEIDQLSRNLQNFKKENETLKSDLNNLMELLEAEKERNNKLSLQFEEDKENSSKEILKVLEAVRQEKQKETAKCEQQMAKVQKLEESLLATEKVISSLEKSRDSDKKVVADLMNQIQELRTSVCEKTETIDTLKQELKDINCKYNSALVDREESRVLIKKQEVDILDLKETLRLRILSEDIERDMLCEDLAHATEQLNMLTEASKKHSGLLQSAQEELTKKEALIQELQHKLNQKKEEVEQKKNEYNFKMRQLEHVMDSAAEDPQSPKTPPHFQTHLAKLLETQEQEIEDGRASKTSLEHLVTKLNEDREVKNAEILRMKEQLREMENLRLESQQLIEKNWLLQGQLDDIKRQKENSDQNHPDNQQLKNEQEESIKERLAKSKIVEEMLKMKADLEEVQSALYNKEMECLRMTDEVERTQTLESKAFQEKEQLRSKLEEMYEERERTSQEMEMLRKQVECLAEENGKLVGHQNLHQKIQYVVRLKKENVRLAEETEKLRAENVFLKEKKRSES

**Q.** How did the fraction of the provided hKif15 in the complex turn out when “human His6-Tpx2 (from UniProt Q9ULW0 1-747) (natural protein)” was run?
**A.** 0.33
